This note sets out measurements from the supplement of paper PMC12042874.

± gives the uncertainty stated by the source.

This data set is described as follows: amyloid nucleation score (Sup35N fusion, yeast selection) (log enrichment); library NNK3; higher = more nucleation; inactive = no reads after selection. The essentials: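 Sup35N fusions to peptides of 20 random codons were expressed in psi-negative yeast, induced 24 hours with 100 μM copper sulfate, and grown 7 days at 30°C on medium lacking adenine and uracil. Input and output plasmid inserts were sequenced by Illumina. The nucleation score is the DiMSum log enrichment of output over input reads, centred on the mode score of non-aggregating sequences. Sequences with under 100 input reads were excluded.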
SFGLWTGFGVMYVRIVDVTH: the amyloid nucleation score entry was “inactive”.
With ILVFM, the amyloid nucleation score is 0.509 ± 0.24.
As for FNYKARYSNPVRDAIYWLQI, the amyloid nucleation score result is “inactive”.
MLLSVRRGSLWESRPRTWLM had an amyloid nucleation score of 0.535 ± 0.22.
Consider MFRLVSGTEGLRLREVWC, for which the amyloid nucleation score is -0.469 ± 1.1.
Turning to RCQRVGI, the amyloid nucleation score entry is “inactive”.
Take IYYPHTFIWDFVDEGVAPHY: the amyloid nucleation score was determined as 1.56 ± 0.12.
For the substance SSLHARRYGLHLSLLSPARA, the amyloid nucleation score entry was “inactive”.
As for LRFGHHMGYEWHLSRKVGSK, the amyloid nucleation score result was “inactive”.
The same measure for YGGMVN: “inactive”; for FNPERPKAVDFPILNR: “inactive”.
Under RIVMPLSVSFMPQVKHPMYR stands “inactive”; under VLCDDTCYFADVSSWSWDWF, “inactive”; under YWSIKELWRFRQLVWRKYIV, “inactive”.
SVDDTLSVNGSSRSCGRGCR returned an amyloid nucleation score of -1.02 ± 1.5.
NRFVNLSNRMVYDFRYRMAV: the amyloid nucleation score result is “inactive”.
As for TGLLYFRFDCGSSIIRSRYY, the amyloid nucleation score was 0.875 ± 0.1.
Consider RSFSECWCWISKLVGYLGVT, for which the amyloid nucleation score entry is “inactive”.
For SLCTSEYFHSTYRNITGLVL, the amyloid nucleation score entry is “inactive”.
As for ALRQRNDCEPYIVRTFWVET, the amyloid nucleation score result was “inactive”.
Under VHVYFRLADL stands 1.3 ± 0.14; under MCYFEYNDVNWRVLLLYLCK, “inactive”; under TVHSIDRVVIIHRLMND, 0.235 ± 0.35.
With VNATDRSVSFLHKGPALDSN, the amyloid nucleation score entry was “inactive”.
In turn, TSCGISSSAGFSVFMSEGAK registered an amyloid nucleation score of 0.692 ± 0.13.
For IVTLNYQLMYKMPKLLWSSN, the amyloid nucleation score result is “inactive”.
FSAIWMSRQSYLRINGSPAF: the amyloid nucleation score was found to be 0.088 ± 0.29.
In the case of SGLDMRYHWNFVICQATRSY, the amyloid nucleation score entry was “inactive”.
Regarding SVAKNCWCPKCGMSSTFDSI, the amyloid nucleation score result is “inactive”.
With NNGSP, the amyloid nucleation score entry was “inactive”.
Under YLFGRFPNGLVGRRGSGLLM stands “inactive”.
On to EFSKHFPCWHRNSVAYYEIR, for which the amyloid nucleation score result is “inactive”.
The same measure for MMLFNVPKICHRLWLNLHRH: “inactive”; for IWTDDWFFVAVSDGKVSRLV: “inactive”.
Turning to NVMSLSMWSSLSLWYSGLS, the amyloid nucleation score entry is “inactive”.
For the substance PDLVNISSSPYRRCGYRWVD, the amyloid nucleation score result is “inactive”.
On to ILLIINFG, for which the amyloid nucleation score was found to be 2.21 ± 0.065.
In the case of TSERLMVSQITAHILGFHEI, the amyloid nucleation score entry is “inactive”.
The substance FSRMPSIKCMNCMCKLFSRK came in with an amyloid nucleation score of 1.06 ± 0.11.
TKIYVLLFTSLVLVDTVLFL: the amyloid nucleation score is -0.002 ± 0.4.
As for VCFDSVAMDNHDYPCVTRYM, the amyloid nucleation score result is “inactive”.
For the substance VNALKRTGK, the amyloid nucleation score result was “inactive”.
The same measure for ERTSYSC: “inactive”; for LWAIMFRYSDIAKLTGWRVV: -0.069 ± 0.82; for FWKLNFITIMCG: -0.34 ± 1.
Turning to GRMEGNRFIDRLLGLHTSSP, the amyloid nucleation score entry was “inactive”.
On to MRMVTSCTISF, for which the amyloid nucleation score entry was “inactive”.
The same measure for SIWKISTRMQTFFCRNM: 1.46 ± 0.1; for YWCLYLNSNCKMW: 0.31 ± 0.44; for NTCSLFSKISDNIQRSAHAR: “inactive”.
The same measure for VSNDLNFILYAPTNVVMSTY: 1.25 ± 0.14; for LIPFCAVHPLWEHHLSKSFF: “inactive”.
Turning to HSYTWICVARLPHWFWTQCL, the amyloid nucleation score was determined as 1.71 ± 0.075.
The same measure for RRVSSSLIEAYYREQSRFQI: “inactive”; for RICMRLVNMTLMCQISGVLG: “inactive”; for TYSRFEISCMCWASYTIK: 0.775 ± 0.22.
In the case of PKISFSGWM, the amyloid nucleation score result is “inactive”.
In the case of TMYCLHLNIMSCWSNSTKKT, the amyloid nucleation score came to 2.57 ± 0.083.
As to SFKNNL, the amyloid nucleation score entry was “inactive”.
For ICTGDSNNSGYVCQLVTKEE, the amyloid nucleation score result was “inactive”.
In the case of RYADMSTMNAS, the amyloid nucleation score entry is “inactive”.
On to TYLALGLSSSMLRESLKWEV, for which the amyloid nucleation score result was “inactive”.
Turning to NPSTLYCGSLHSLVLRSFLI, the amyloid nucleation score result was “inactive”.
For the substance YSSKIFHRLTK, the amyloid nucleation score entry is “inactive”.
Consider ILPGL, for which the amyloid nucleation score result is “inactive”.
Regarding SGATLLC, the amyloid nucleation score result was “inactive”.
WVFSWKMHRSKSKYRSKYLP: the amyloid nucleation score result is “inactive”.
For the substance SCSFRVYYFRLYFMLRSGSV, the amyloid nucleation score was -0.743 ± 0.82.
For SLNEHNAGGIVTLHWQSIES, the amyloid nucleation score result is “inactive”.
Under ALLTFILVLIVEVVNWRKVC stands 0.961 ± 0.23.
On to LSSCKLSYSKQLSRTVNQL, for which the amyloid nucleation score entry is “inactive”.
On to GWTGVVFPVVSINSYQFTLF, for which the amyloid nucleation score turned out to be 0.757 ± 0.33.
Turning to RKRAGVMGTLSN, the amyloid nucleation score result was “inactive”.
With FNDKSMFDASKAMPFSLIAG, the amyloid nucleation score result is “inactive”.
For the substance IHILFGTSWLMTRLFCLVK, the amyloid nucleation score result was “inactive”.
In turn, GWKAPLTLRRTLSALDFVLY showed an amyloid nucleation score of 0.371 ± 0.38.
Consider GFGHGLKFRPRDRWGSIYPY, for which the amyloid nucleation score result was “inactive”.
On to TVFDWLMHQMNC, for which the amyloid nucleation score entry was “inactive”.
Turning to VILATAYLASNLYPVCSLIS, the amyloid nucleation score result is “inactive”.
In turn, RVNILFNFFCHTVW registered an amyloid nucleation score of 1.2 ± 0.13.
Regarding AFVKFSRTWSSVSSLCGFQA, the amyloid nucleation score entry was “inactive”.
Take YNFGVMVWTSDF: the amyloid nucleation score was 2 ± 0.073.
With DKWFMSVPIISTRICGGCLG, the amyloid nucleation score result is “inactive”.
As for YLRMLVDELKITHHH, the amyloid nucleation score entry was “inactive”.
Take SGFYRENARILTV: the amyloid nucleation score entry is “inactive”.
Turning to ISGKSHSFCCVTLFHLREGI, the amyloid nucleation score was determined as 1.12 ± 0.17.
As to NMSWNVCVRFK, the amyloid nucleation score stood at 1.87 ± 0.068.
The substance ICLAFRPECCCGIWTDKRIG displayed an amyloid nucleation score of 1.74 ± 0.088.
LKDLGYELIILAFKRLFLCC: the amyloid nucleation score result is “inactive”.
In turn, NRGSGRSMYMRSSFYSESGS gave an amyloid nucleation score of 0.522 ± 0.28.
Under TYCYTVVTASMDAFEG stands “inactive”; under YICCDIRTRALRIRIRCVLM, -0.411 ± 0.75.
Consider QWEVR, for which the amyloid nucleation score result is “inactive”.
Consider NSKNFIMSISRLGYLASF, for which the amyloid nucleation score entry was “inactive”.
Turning to MLSISFLYFATTVGVDVTLG, the amyloid nucleation score entry was “inactive”.
The same measure for VDEYVLWVSYYPWWYRVNTV: “inactive”; for NYGAN: “inactive”.
Under MICAGVMIGYALFYFQIWSC stands “inactive”; under VYGLVRLALSAINDYEDYNL, “inactive”.
The same measure for KNTVSYSATLGKVSMSERRR: “inactive”.
Take KKKAGLGRDWYWTVFLMVLS: the amyloid nucleation score result is “inactive”.
As for TLSSLPVPL, the amyloid nucleation score result is “inactive”.
For SYWSYSSTFSILLSDSFAIS, the amyloid nucleation score result was “inactive”.
Regarding WFAGGHGKESIINWHYCQYM, the amyloid nucleation score entry was “inactive”.
For LRFNDYMC, the amyloid nucleation score result was “inactive”.
With MCRSNFAWSPSHK, the amyloid nucleation score result is “inactive”.
Under DIVIFVEVNHWFLMGMSHKT stands 0.999 ± 0.088; under YKETDLQIFRAIVVSSSYWD, “inactive”; under YTLIIRLCFFNIGCAYRFSM, “inactive”.
For SLMSFRYLRTFKWRSMSILS, the amyloid nucleation score entry was “inactive”.
As to FKRHMTINLQRGITLIGIDM, the amyloid nucleation score was determined as 1.93 ± 0.062.
As to GCSGVVVGCWRDPRICWLWW, the amyloid nucleation score result was “inactive”.
The substance MTRVYLMNFVLQLASTSQDS came in with an amyloid nucleation score of 2.54 ± 0.065.
Under FIERLARNQFLNAYSMLDCE stands “inactive”.
The same measure for FGPAMCYSLIVQLTSVYRGG: 1.99 ± 0.087; for VPKAYR: “inactive”.
In the case of NCMELLWCCSCSSVICVMHH, the amyloid nucleation score came to 2.96 ± 0.07.
As to HALNSCDEFGTVMELCSCGS, the amyloid nucleation score entry was “inactive”.
As to LNDGWVLIYYSGALSDREI, the amyloid nucleation score entry is “inactive”.
The same measure for CSLGLLMVQRERC: 1.38 ± 0.098; for FSCVGGGSSNIWREVTDTCS: “inactive”; for GSYWKHVWLRYTSHGLTPQW: “inactive”.
Regarding VIKTTNNQ, the amyloid nucleation score came to 1.09 ± 0.11.
Under NNDIVKGSPPPWVMFLVALH stands “inactive”; under LDHIGKFLFRVTGCCITFTR, “inactive”.
In the case of FFCRKAHLMVVFFSSMRMTG, the amyloid nucleation score entry is “inactive”.
Consider RFQFEGREFCLGMLDFNSWI, for which the amyloid nucleation score entry is “inactive”.
The same measure for NRYHRIIRDAIRKDYTVCSL: “inactive”; for NADTYNRSDEKMTGRYWDRR: “inactive”; for IFKNTVTLRN: “inactive”.
With YWRFAMYQCIQFSRR, the amyloid nucleation score result was “inactive”.
